Consider three molecules from paper PMC9475207, “Neural crest cell-placodal neuron interactions are mediated by Cadherin-7 and N-cadherin during early chick trigeminal ganglion assembly” (F1000Research, 2022).

Sequences and labels used below:
T1: N-cadherin GFP11 (chick, UniProt P10288 165-912)
T1 construct: Synthesized by GenScript; also called N-cad GFP11; N-cad GFP 11; source: CHO cells, transfected, in cells; chick embryo, electroporated in ovo into trigeminal placode cells; not shown: split GFP subunit 11 (GFP11), N-terminal, kept
T1 sequence (looked up): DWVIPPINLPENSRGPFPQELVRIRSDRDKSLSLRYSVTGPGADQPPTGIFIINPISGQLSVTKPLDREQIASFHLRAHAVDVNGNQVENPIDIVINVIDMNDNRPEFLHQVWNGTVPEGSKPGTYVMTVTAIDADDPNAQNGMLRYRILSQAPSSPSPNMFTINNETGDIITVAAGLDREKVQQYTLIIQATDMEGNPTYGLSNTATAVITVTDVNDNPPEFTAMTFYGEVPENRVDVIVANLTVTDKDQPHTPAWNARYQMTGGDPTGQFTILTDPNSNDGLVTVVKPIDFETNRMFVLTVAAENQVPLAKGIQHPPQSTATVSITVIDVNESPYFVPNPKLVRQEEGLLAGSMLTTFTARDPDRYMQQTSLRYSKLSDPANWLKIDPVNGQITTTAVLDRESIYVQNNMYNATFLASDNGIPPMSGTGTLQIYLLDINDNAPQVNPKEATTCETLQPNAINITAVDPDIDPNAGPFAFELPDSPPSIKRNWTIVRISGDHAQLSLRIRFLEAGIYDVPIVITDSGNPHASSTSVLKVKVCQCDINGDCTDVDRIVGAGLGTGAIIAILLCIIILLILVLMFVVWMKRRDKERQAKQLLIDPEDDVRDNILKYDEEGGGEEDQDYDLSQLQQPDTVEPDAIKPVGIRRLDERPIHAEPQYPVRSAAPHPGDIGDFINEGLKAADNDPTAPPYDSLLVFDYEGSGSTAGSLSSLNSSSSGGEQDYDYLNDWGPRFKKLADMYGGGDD

B1: Cadherin-7 GFP1-10 (natural protein, chick, UniProt Q90763 48-785, looked up)
chain: SWVWNQFFVLEEYMGSDPLYVGKLHSDVDKGDGSIKYILSGEGASSIFIIDENTGDIHATKRLDREEQAYYTLRAQAHDRLTNKPVEPESEFVIKIQDINDNEPKFLDGPYTAGVPEMSPVGTSVVQVTATDADDPTYGNSARVVYSILQGQPYFSVEPKTGIIKTALPNMDREAKDQYLLVIQAKDMVGQNGGLSGTTSVTVTLTDVNDNPPRFPRRSYQYNVPESLPLASVVARIKAADADVGPNAEMEYKIVDGDGLGVFKISVDKDTQEGIITIQKELDFEAKTSYTLRIEAANMHVDPRFLSLGPFSDMTTVKIIVEDVDEPPVFTSRLYSMVVSEAAKVGTIIGTVAAHDPDASNSPVRYSIDRNTDLERYFNIDANSGVITTAKSLDRETNAVHNITVLAMESQNPAQIGRGYVAITILDINDNAPEFAMEYETTVCENAQPGQIIQKISAIDKDDPPNGHQFYFSLTAEAANNHNFTLQDNKDNTATVLTRRNGFRRQEQSVFYLPIFIVDSGSPSLSSTNTLTIRVCDCDADGIAQTCNAEAYILPAGLSTGALIAILACVLTLLVLVLLIVTMRRRKKEPLIFDEERDIRENIVRYDDEGGGEEDTEAFDMAALRNLNIIRDTKTRRDVTPEIQFLSRPTFKSIPDNVIFREFIWERLKEADVDPCAPPYDSLQTYAFEGNGSVAESLSSLDSISSNSDQNYDYLSDWGPRFKRLADMYGSGPDCLYS
notes: Synthesized by GenScript; also called Cad7 GFP1-10; source: CHO cells, transfected, in cells; chick embryo, electroporated in ovo into premigratory neural crest cells; not shown: split GFP subunits 1-10 (GFP1-10), N-terminal, kept
B2: Cadherin-7 GFP11 (natural protein, chick, UniProt Q90763 48-785, looked up)
chain: B1 chain
notes: Synthesized by GenScript; also called Cad7 GFP11; Cad711; source: CHO cells, transfected, in cells; chick embryo, electroporated in ovo into premigratory neural crest cells; not shown: split GFP subunit 11 (GFP11), N-terminal, kept
B3: N-cadherin GFP1-10 (natural protein, chick, UniProt P10288 165-912, looked up)
chain: T1 sequence (looked up)
notes: Synthesized by GenScript; also called N-cad GFP1-10; N-cad GFP 1-10; source: CHO cells, transfected, in cells; chick embryo, electroporated in ovo into trigeminal placode cells; not shown: split GFP subunits 1-10 (GFP1-10), N-terminal, kept

Test in all cases: split reporter (BiFC, NanoBiT); GRASP (split GFP1-10 / GFP11 on the cadherin extracellular domain); both constructs co-transfected into CHO cells (in cis); GFP fluorescence by confocal imaging, GFP+ cells/DAPI+ cells
Common to all, as to settings: partners not purified

Assay [1] has as its target B2.
For assay [2], the target named is T1, N-cadherin GFP11.
Assay [3] deals with B3.

On to B1, for which the “percent GFP-positive cells (GFP+ cells/DAPI+ cells)” value stood at 10.5% in assay [1] and 8.9% in assay [2].

In the case of B2, the “percent GFP-positive cells (GFP+ cells/DAPI+ cells)” value in assay [3] came to 5.76%.

Turning to B3, the “percent GFP-positive cells (GFP+ cells/DAPI+ cells)” value in assay [2] was determined as 13.2%.
